Data: publication PMC11785957 (2025)
Values belong to the binder of their own block, whether it stands above or below them. Where no end group is shown, it is not given here.

Biological target: human TLR3 ectodomain (Wuxi Biologics, C-terminal His and Avi tags) (human, UniProt O15455 24-704, biotinylated (for yeast display))
Assay: BLI

- Kd: 0.44 µM
B1: minibinder 7 (designed binder)
chain: SAMERYVKVLLRTAELAREAGDPEDVRKALEKAELVARILHNEELKEEIREVEEEL
modifications: also: biotinylated (site not given here)

- Kd: 1.2 µM
B2: minibinder 8 (designed binder)
chain: SLEEEAERVVEELVKEFNLSETQEIALRRYAEFAAKAGASEEVIEELLRRVAERLS
modifications: also: biotinylated (site not given here)
